Measured values from the supplement of paper PMC7877785.
± gives the uncertainty stated by the source.

Assay: self-splicing fitness, log relative to wild type (ln ratio); higher = more splicing; Tetrahymena group I intron in knt gene, E. coli kanamycin selection, DiMSum; sequences stand for … in CUCUCU…GGAGGGAAAAGUUAUCAGGCAUGCACCUGGUAGCUAGUCUUUAAACCAAUAGAUUGCAUCGGUUUAAAAGGCAAGACCGUCAAAUUGCGGGAAAGGGGUCAACAGCCGUUCAGUACCAAGUCUCAGGGGAAACUUUGAGAUGGCCUUGCAAAGGGUAUGGUAAUAAGCUGACGGACAUGGUCCUAACCACGCAGCCAAGUCCUAAGUCAACAGAUCUUCUGUUGAUAUGGAUGCAGUUCACAGACUAAAUGUCGGUCGGGGAAGAUGUAUUCUUCUCAUAAGAUAUAGUCGGACCUCUCCUUAAUGGGAGCUAGCGGAUGAAGUGAUGCAACACUGGAGCCGCUGGGAACUAAUUUGUAUGCGAAAGUAUAUUGAUUAGUUUUGGAGUACUCGUGGUCG
Procedure, shortened: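 A randomised library covering all eight P1ex-region intron nucleotides was built with the intron in the knt kanamycin-resistance gene on pET-22b(+) and held in E. coli BL21(DE3). Cells were grown overnight at 37°C or 30°C on LB agar, with or without 25 μg/mL kanamycin, plus 100 μg/mL carbenicillin, 50 μM IPTG and 0.2% rhamnose, and pooled colonies were amplicon-sequenced on an Illumina HiSeq 2500. DiMSum fitness is the error-weighted combination of wild-type-normalised replicate fold changes, kanamycin versus none.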

Sequence	self-splicing fitness (ln) (30 °C)	self-splicing fitness (ln) (37 °C)
UUUGAGCAAUAUUACGACUU	-3.13 ± 0.34	-2.28 ± 0.37
UUUGAGCAAUAUUACGAGCU	-2.69 ± 0.39	–
UUUGAGCAAUAUUACGAUUA	-2.13 ± 0.41	-2.41 ± 0.36
UUUGAGCAAUAUUACGCAGA	–	-1.51 ± 0.32
UUUGAGCAAUAUUACGCCCU	-1.25 ± 0.41	-1.96 ± 0.41
UUUGAGCAAUAUUACGGAAC	-1.63 ± 0.16	-1.2 ± 0.24
UUUGAGCAAUAUUACGGAUG	-2.66 ± 0.21	–
UUUGAGCAAUAUUACGGCUG	-0.955 ± 0.11	-0.634 ± 0.17
UUUGAGCAAUAUUACGGUCC	-3.88 ± 0.28	-1.8 ± 0.23
UUUGAGCAAUAUUACGGUCU	–	-2.63 ± 0.41
UUUGAGCAAUAUUACGGUGG	-2.98 ± 0.31	–
UUUGAGCAAUAUUACGGUUU	-3.23 ± 0.48	-1.92 ± 0.32
UUUGAGCAAUAUUACGUAAU	-3.94 ± 0.43	-1.65 ± 0.23
UUUGAGCAAUAUUACGUCAA	-1.66 ± 0.21	-2.66 ± 0.37
UUUGAGCAAUAUUACGUCGC	-3.06 ± 0.49	-2.07 ± 0.47
UUUGAGCAAUAUUACGUGUG	-3.37 ± 0.23	-2.55 ± 0.33
UUUUAGCAAUAUUACGAAAU	-2.34 ± 0.34	-1.72 ± 0.27
UUUUAGCAAUAUUACGACUG	-0.652 ± 0.097	-0.152 ± 0.13

Sequence	self-splicing fitness (ln) (30 °C)	self-splicing fitness (ln) (37 °C)
UUUUAGCAAUAUUACGAGGG	-2.9 ± 0.42	–
UUUUAGCAAUAUUACGAUAU	-2.66 ± 0.22	-1.42 ± 0.28
UUUUAGCAAUAUUACGCAUG	-1.3 ± 0.12	-0.672 ± 0.13
UUUUAGCAAUAUUACGCGCU	-2.57 ± 0.25	-0.994 ± 0.21
UUUUAGCAAUAUUACGGAAA	-1.73 ± 0.23	-1.14 ± 0.34
UUUUAGCAAUAUUACGGGCG	-0.356 ± 0.12	-0.216 ± 0.19
UUUUAGCAAUAUUACGGGUG	-1.65 ± 0.11	-0.739 ± 0.14
UUUUAGCAAUAUUACGGUGA	-0.38 ± 0.15	0.0249 ± 0.14
UUUUAGCAAUAUUACGUAAU	-3.62 ± 0.28	-1.6 ± 0.22
UUUUAGCAAUAUUACGUAUG	-2.01 ± 0.19	-0.735 ± 0.2
UUUUAGCAAUAUUACGUCAA	-2.59 ± 0.17	-1.34 ± 0.13
UUUUAGCAAUAUUACGUCCG	-2.37 ± 0.34	0.963 ± 0.33
UUUUAGCAAUAUUACGUCCU	–	0.494 ± 0.32
UUUUAGCAAUAUUACGUGCA	-2.12 ± 0.17	-1.11 ± 0.18
UUUUAGCAAUAUUACGUGGC	-3.09 ± 0.42	–
UUUUAGCAAUAUUACGUGGU	-3.72 ± 0.35	-3.24 ± 0.42
UUUUAGCAAUAUUACGUUGA	–	-1.8 ± 0.36
UUUUAGCAAUAUUACGUUGG	-2.07 ± 0.21	-2.23 ± 0.32
